The text below walks through data of patent US20150315275A1 (AstraZeneca / MedImmune, published 2015).

In test [1] the target is T1, human B7-H4 expressed on cells (human, UniProt Q7Z7D3 25-282).
T1 construct: the cell line is named under assay or readout; also called full length human B7-H4 on HEK293 cells; 293T.hB7-H4
T1 sequence: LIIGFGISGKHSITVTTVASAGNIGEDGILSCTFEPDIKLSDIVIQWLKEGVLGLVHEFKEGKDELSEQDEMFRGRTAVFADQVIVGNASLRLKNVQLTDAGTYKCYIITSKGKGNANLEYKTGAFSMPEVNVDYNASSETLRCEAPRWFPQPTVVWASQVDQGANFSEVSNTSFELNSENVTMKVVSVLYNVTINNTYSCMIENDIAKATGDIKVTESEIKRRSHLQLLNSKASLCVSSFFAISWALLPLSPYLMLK
Briefly: flow cytometry on HEK293.hB7-H4 transfectants, one-site specific binding fit. On the procedure:
For each staining, 0.2 million HEK293.hB7-H4 transfectants were resuspended in 100 μl flow cytometry buffer (PBS+2% FBS). A serial dilution of chimeric 6H3 and 14 humanized variants of 0, 0.1 ng, 0.3 ng, 1 ng, 3 ng, 10 ng, 30 ng, 100 ng, 300 ng, 1 μg, 3 μg and 10 μg were added to the cells and incubated at 4° C. for 30 min. Cells were then washed twice with 2 ml flow cytometry buffer, and resuspended in 100 μl flow cytometry buffer. 1 μl anti-hIg PE secondary antibody (Biolegend) was added and incubated with the cells for 15 mins Samples were then washed and resuspended in 100 μl flow cytometry buffer. Flow Cytometry data was acquired using BD Canto (BD Biosciences) in plate format and analyzed by FlowJo software. Staining data (MFI) was then input into Prism 5 software to generate binding curve. Curve-fit using one-site specific binding algorithm calculates individual KD for each variant.
Background: A flow cytometer gives signals particle by particle.

Test [2] deals with T2, mouse B7-H4ECD mIgG2a Fc fusion protein (mouse, UniProt Q7TSP5 25-257, limits assumed).
T2 construct: also called mouse B7-H4-mIg fusion protein; Mouse B7-H4-mouse-Ig Fusion Protein; not shown: mouse IgG2a Fc
T2 sequence: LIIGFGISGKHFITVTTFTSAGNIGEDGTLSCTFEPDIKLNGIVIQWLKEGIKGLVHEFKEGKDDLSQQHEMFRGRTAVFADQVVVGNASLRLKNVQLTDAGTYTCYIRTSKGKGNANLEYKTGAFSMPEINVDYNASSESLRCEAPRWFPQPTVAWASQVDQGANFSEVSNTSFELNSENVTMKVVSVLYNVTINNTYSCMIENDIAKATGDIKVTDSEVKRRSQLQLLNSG
As to the kind of experiment: ELISA, mouse B7-H4ECD mIgG2a Fc fusion coated. As for the experimental part: 100 μg/ml mouse B7-H4ECD mIgG2a Fc fusion protein diluted in PBS was immobilized on flat bottom 96 well plate (Costar 9017) overnight at 4° C. Plates were washed twice with PBS+0.1% PS-20 and blocked with 200 μl/well PBS 10% FBS at RT for 1 hr. 100 μl chimeric 6H3 and 14 selected 6H3 humanized variants diluted in PBS 10% FBS were added to each well and incubated at RT for 1 hr. Plates were washed three times and 100 μl 1 μg/ml anti-human Ig HRP (Sigma) was added to each well and incubated at RT for 1 hr. Plates were washed six times and 100 μl TMB substrate (SurModics) was added to each well for 5-15 mins 100 μl stop solution (0.1M Sulfuric acid) was added to each well. Plates were read at Absorbance 450 nm by PerkinElmer EnVision 2104 Multilabel Reader.

For test [3], the target named is T3, B7-H4ECD his-tagged protein (Sinobiologics) (human, UniProt Q7Z7D3 25-259).
T3 construct: Bought protein; Result paragraph calls the target human B7-H4; also called B7-H4 extracellular domain; not shown: his tag
T3 sequence: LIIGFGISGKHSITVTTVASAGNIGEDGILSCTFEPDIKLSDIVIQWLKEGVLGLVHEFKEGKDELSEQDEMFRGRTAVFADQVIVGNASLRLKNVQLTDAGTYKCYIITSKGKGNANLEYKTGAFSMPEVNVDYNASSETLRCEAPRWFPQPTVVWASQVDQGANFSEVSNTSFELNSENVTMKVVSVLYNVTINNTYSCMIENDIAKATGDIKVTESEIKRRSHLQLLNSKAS
Briefly: ELISA, B7-H4ECD his-tagged protein coated. As for the experimental part:
100 μl 1 μg/ml B7-H4ECD his-tagged protein (Sinobiologics) diluted in PBS was immobilized on flat bottom 96 well plate (Costar 9017) overnight at 4° C. Plates were washed twice with PBS+0.1% PS-20 and blocked with 200 μl/well PBS 10% FBS at RT for 1 hr. 100 μl chimeric 6H3 and 14 selected 6H3 humanized variants diluted in PBS 10% FBS were added to each well and incubated at RT for 1 hr. Plates were washed three times and 100 μl 1 μg/ml anti-human Ig HRP (Sigma) was added to each well and incubated at RT for 1 hr. Plates were washed six times and 100 μl TMB substrate (SurModics) was added to each well for 5-15 mins 100 μl stop solution (0.1M Sulfuric acid) was added to each well. Plates were read at Absorbance 450 nm by PerkinElmer EnVision 2104 Multilabel Reader.

The target in test [4] is T4, B7-H4-Ig fusion protein (human).
T4 construct: also called human B7-H4 Ig
Briefly: competition ELISA on B7-H4-Ig-coated plate, Plate 1; competitor biotinylated mouse 6H3 (5 ng/ml). On the procedure: (§1) A 12-point, 3-fold dilution series of 14 humanized 6H3 antibody variants was prepared ranging from 100 μg/ml to 0.5 ng/ml. Dilutions were prepared in assay diluent containing biotinylated mouse anti-human B7-H4 6H3 (SEQ ID NOS:3 and 5 for light chain variable region and heavy chain variable region respectively) at 5 ng/ml. Antibodies were allowed to bind to B7-H4-Ig-coated assay plates (200 ng/well) for 1 hour at room temperature and detected with streptavidin HRP.
Background: ELISA stands for enzyme-linked immunosorbent assay.

Test [5] deals with T4, B7-H4-Ig fusion protein. Briefly: competition ELISA on B7-H4-Ig-coated plate, Plate 2; competitor biotinylated mouse 6H3 (5 ng/ml). On the procedure: as §1
Test [6] deals with T1, human B7-H4 expressed on cells. As to the kind of experiment: saturation binding, flow cytometry on 624mel/B7-H4 cells, biotinylated mAb, azide-treated cells; unit not given. As for the experimental part:
A saturation binding experiment was carried out on 624mel/B7-H4 cells using the chimeric 6H3 mAb and humanized variants of 6H3. Briefly, 50,000 cells were pretreated with 0.1% azide on ice for 30 minutes to inhibit B7-H4 internalization then stained for 30 minutes with biotinylated anti-B7-H4 mAbs. The mAbs were diluted in a 12-point, 3-fold dilution series ranging from 200 μg/ml down to 1 ng/ml. Cell were stained with streptavidin PE for 10 minutes, washed, fixed and analyzed by flow cytometry.
FIGS. 35A-35B are binding curves for the raw (FIG. 35A) and background subtracted data (FIG. 35B). […] The subtracted values were used to determine the Kd and Bmax. The antibodies appear to fall into two groups based on Kd values (Table 10).

Substitutions are numbered along the chain they refer to. Names and notes keep the numbering of the source. Values joined by “and” are separate entries in the source; they are usually repeats but may differ in a detail not shown here. Identical values can stand only once.

B1: humanized 6H3 variant 4 (antibody, V domains shown)
VH: EVQLVQSGAEMKKPGASVKVSCKASGYTFTDYYMNWVRQAPGQSLEWIGVINPYNGDTTYNQKFQGRVTVTVDKSATTAYMELSSLRSEDTAVYYCARYPESTYWGQGTLVTVSS
VL: DVVMTQSPLSLPVTLGQPASISCRSSQSLVHINGNTYLHWYQQRPGQSPRVLIYKVSNRFSGVPDRFSGSGSGTDFTLKISRVEAEDVGVYFCSQSTHVPLTFGGGTKVEIK
notes: also called V4; Variant 4 (antibody)
A word on the Kd: it is the concentration at which binding is half-saturated. The low end stands for higher affinity, the high end for lower affinity. A word on the EC50: it is the concentration that produces a half-maximal response. A high value points to a need for much substance. With B1, the “Bmax(MFI)” value in test [1] amounted to 580 MFI. Besides, binding in test [1] was characterised by a dissociation constant (Kd) of 5200 pM. Besides, the EC50 in test [2] is 80 pM; in test [3], 1160 pM; in test [4] it was 2.95 µg/mL and 19.7 nM.

B2: humanized 6H3 variant 8 (antibody, V domains shown)
VH: QVQLVQSGAEVKKPGASVKVSCKASGYTFTDYYMHWVRQAPGQGLEWMGIINPYNGDTSYAQKFQGRVTMTRDTSTSTVYMELSSLRSEDTAVYYCARYPESTYWGQGTLVTVSS
VL: B1 VL with V2I, S7T, G105Q
notes: also called V8; H1A L2B
The molecule B2 displayed an EC50 in test [2] of 60 pM.

B3: humanized 6H3 variant 1 (antibody, V domains shown)
VH: B2 VH
VL: B1 VL
notes: also called V1; H1A L1B
Consider B3, for which, in test [2], the midpoint of the response, the EC50, lay at 100 pM.

B4: humanized 6H3 variant 11 (antibody, V domains shown)
VH: B1 VH
VL: B1 VL with V2I, S7T, G105Q
notes: also called V11; H2C L2B
For B4, the “Bmax(MFI)” value in test [1] amounted to 648 MFI. The same molecule registered a Kd in test [1] of 6900 pM. Moreover, the EC50 is 2.2 µg/mL and 14.7 nM in test [5]; 110 pM in test [2]; 970 pM in test [3].

B5: humanized 6H3 variant 3 (antibody, V domains shown)
VH: B1 VH with I48M, T71A
VL: B1 VL
notes: also called V3; H2B L1B
Turning to B5, the “Bmax(MFI)” value in test [1] was found to be 583 MFI. This molecule also came in with a Kd in test [1] of 6000 pM. The EC50 was 100 pM in test [2]; 1190 pM in test [3]; 3.09 µg/mL and 20.6 nM in test [4].

B6: humanized 6H3 variant 5 (antibody, V domains shown)
VH: B1 VH with M11V, S44G, V50I, T59S, Q65K, V70L, A76T, T77S
VL: B1 VL with Q42L, R50K
notes: also called V5; Variant 5 (antibody)
As for B6, the “Bmax(MFI)” value in test [1] is 646 MFI. Also, in test [1], the dissociation constant Kd was found to be 4200 pM. Also, the EC50 was 50 pM in test [2]; 950 pM in test [3]; 3.62 µg/mL and 24.2 nM in test [4].

B7: humanized 6H3 variant 6 (antibody, V domains shown)
VH: B1 VH with I48M, T71A
VL: B1 VL with Q42L, R50K
notes: also called V6; Variant 6 (antibody)
As for B7, in test [1], the “Bmax(MFI)” value came to 526 MFI. Further, the Kd in test [1] came out at 5000 pM. For the same molecule, the EC50 in test [2] is 130 pM; in test [3], 1640 pM; in test [4] it was 2.53 µg/mL and 16.9 nM. This molecule returned a Bmax in test [6] of 6420.

B8: humanized 6H3 variant 10 (antibody, V domains shown)
VH: B1 VH with I48M, T71A
VL: B1 VL with V2I, S7T, G105Q
notes: also called V10; H2B L2B
For B8, the “Bmax(MFI)” value in test [1] is 662 MFI. This molecule showed a Kd in test [1] of 5500 pM. For the same molecule, the EC50 in test [5] is 2.13 µg/mL and 14.2 nM; in test [2] it was 130 pM; in test [3] it was 890 pM.

B9: humanized 6H3 variant 7 (antibody, V domains shown)
VH: B1 VH
VL: B1 VL with Q42L, R50K
notes: also called V7; 6H3 V7
B9: in test [1], the “Bmax(MFI)” value stood at 513 MFI. Besides, the Kd in test [1] amounted to 6500 pM. The EC50 was 110 pM in test [2]; 1070 pM in test [3]; 2.63 µg/mL and 17.5 nM in test [4]. For the same molecule, the Bmax in test [6] is 6080.

B10: humanized 6H3 variant 2 (antibody, V domains shown)
VH: B1 VH with M11V, S44G, V50I, T59S, Q65K, V70L, A76T, T77S
VL: B1 VL
notes: also called V2; 6H3 V2
Turning to B10, in test [1], the “Bmax(MFI)” value is 603 MFI. Moreover, in test [1], the affinity, expressed as Kd, was 2400 pM. Besides, the EC50 in test [2] is 80 pM; in test [3], 510 pM; in test [4] it was 2.46 µg/mL and 16.4 nM. For the same molecule, the Bmax in test [6] worked out at 4650.

B11: humanized 6H3 variant 13 (antibody, V domains shown)
VH: B1 VH with I48M, T71A
VL: B1 VL with V2I, S7T, Q42L, R50K, G105A
notes: also called V13; H2B L2C
In the case of B11, the “Bmax(MFI)” value in test [1] was determined as 648 MFI. This molecule also registered a Kd in test [1] of 7000 pM. Moreover, the EC50 in test [5] is 2.11 µg/mL and 14.1 nM; in test [2], 130 pM; in test [3], 920 pM.

B12: humanized 6H3 variant 14 (antibody, V domains shown)
VH: B1 VH
VL: B1 VL with V2I, S7T, Q42L, R50K, G105A
notes: also called V14; 6H3 V14
In the case of B12, in test [1], the “Bmax(MFI)” value turned out to be 629 MFI. In test [1], the Kd came to 5800 pM. The EC50 in test [5] was 2.49 µg/mL and 16.6 nM; in test [2], 110 pM; in test [3] it was 680 pM. Besides, the Bmax in test [6] worked out at 5580.

B13: humanized 6H3 variant 9 (antibody, V domains shown)
VH: B1 VH with M11V, S44G, V50I, T59S, Q65K, V70L, A76T, T77S
VL: B1 VL with V2I, S7T, G105Q
notes: also called V9; 6H3 V9
As to B13, the “Bmax(MFI)” value in test [1] was 553 MFI. Also, in test [1], the Kd worked out at 1800 pM. The EC50 in test [5] was 2.69 µg/mL and 17.9 nM; in test [2] it was 70 pM; in test [3] it was 750 pM. Moreover, the Bmax in test [6] turned out to be 4610.
